# Results reported in patent publication US20240132485A1, “HETEROCYCLIC CULLIN RING UBIQUITIN LIGASE COMPOUNDS AND USES THEREOF” (CEMM - FORSCHUNGSZENTRUM FÜR MOLEKULARE MEDIZIN GMBH, priority 2020, published 2024).
# Assays:
# [1] = target: Nanoluc_DDB1 (N-terminal Nanoluc luciferase, G4S linker, DDB1 (FL)) (UniProt Q16531); test: NanoBRET in HEK293T cells, 10 µM compound Example 3-32; class B = 3-4 fold increase
# [2] = target: Nanoluc_DDB1 (N-terminal Nanoluc luciferase, G4S linker, DDB1 (FL)) (UniProt Q16531); test: NanoBRET in HEK293T cells, 10 µM compound Example 3-5; class B = 3-4 fold increase
# [3] = target: Nanoluc_DDB1 (N-terminal Nanoluc luciferase, G4S linker, DDB1 (FL)) (UniProt Q16531); test: NanoBRET in HEK293T cells, 10 µM compound Example 3-31; class C = 2-3 fold increase
# [4] = target: Nanoluc_DDB1 (N-terminal Nanoluc luciferase, G4S linker, DDB1 (FL)) (UniProt Q16531); test: NanoBRET in HEK293T cells, 10 µM compound Example 3-25; class B = 3-4 fold increase
# [5] = target: Nanoluc_DDB1 (N-terminal Nanoluc luciferase, G4S linker, DDB1 (FL)) (UniProt Q16531); test: NanoBRET in HEK293T cells, 10 µM compound Example 3-8; class A = greater than 4-fold increase
# [6] = target: Nanoluc_DDB1 (N-terminal Nanoluc luciferase, G4S linker, DDB1 (FL)) (UniProt Q16531); test: NanoBRET in HEK293T cells, 10 µM compound Example 3-56; class C = 2-3 fold increase
# [7] = target: Nanoluc_DDB1 (N-terminal Nanoluc luciferase, G4S linker, DDB1 (FL)) (UniProt Q16531); test: NanoBRET in HEK293T cells, 10 µM compound Example 3-57; class B = 3-4 fold increase
# [8] = target: Nanoluc_DDB1 (N-terminal Nanoluc luciferase, G4S linker, DDB1 (FL)) (UniProt Q16531); test: NanoBRET in HEK293T cells, 10 µM compound Example 3-37; class C = 2-3 fold increase
# [9] = target: Nanoluc_DDB1 (N-terminal Nanoluc luciferase, G4S linker, DDB1 (FL)) (UniProt Q16531); test: NanoBRET in HEK293T cells, 10 µM compound Example 3-65; class B = 3-4 fold increase
# [10] = target: Nanoluc_DDB1 (N-terminal Nanoluc luciferase, G4S linker, DDB1 (FL)) (UniProt Q16531); test: NanoBRET in HEK293T cells, 10 µM compound Example 3-23; class B = 3-4 fold increase
# [11] = target: Nanoluc_DDB1 (N-terminal Nanoluc luciferase, G4S linker, DDB1 (FL)) (UniProt Q16531); test: NanoBRET in HEK293T cells, 10-point titration of compound Example 3-9; class A = EC50<=0.25 µM
# [12] = target: Nanoluc_DDB1 (N-terminal Nanoluc luciferase, G4S linker, DDB1 (FL)) (UniProt Q16531); test: NanoBRET in HEK293T cells, 10 µM compound Example 3-13; class B = 3-4 fold increase
# [13] = target: Nanoluc_DDB1 (N-terminal Nanoluc luciferase, G4S linker, DDB1 (FL)) (UniProt Q16531); test: NanoBRET in HEK293T cells, 10 µM compound Example 3-17; class A = greater than 4-fold increase
# [14] = target: Nanoluc_DDB1 (N-terminal Nanoluc luciferase, G4S linker, DDB1 (FL)) (UniProt Q16531); test: NanoBRET in HEK293T cells, 10-point titration of compound Example 3-43; class A = EC50<=0.25 µM
# [15] = target: Nanoluc_DDB1 (N-terminal Nanoluc luciferase, G4S linker, DDB1 (FL)) (UniProt Q16531); test: NanoBRET in HEK293T cells, 10-point titration of compound Example 3-1; class A = EC50<=0.25 µM
# [16] = target: Nanoluc_DDB1 (N-terminal Nanoluc luciferase, G4S linker, DDB1 (FL)) (UniProt Q16531); test: NanoBRET in HEK293T cells, 10 µM compound Example 3-2; class B = 3-4 fold increase
# [17] = target: Nanoluc_DDB1 (N-terminal Nanoluc luciferase, G4S linker, DDB1 (FL)) (UniProt Q16531); test: NanoBRET in HEK293T cells, 10 µM compound Example 3-16; class C = 2-3 fold increase
# [18] = target: Nanoluc_DDB1 (N-terminal Nanoluc luciferase, G4S linker, DDB1 (FL)) (UniProt Q16531); test: NanoBRET in HEK293T cells, 10-point titration of compound Example 3-64; class E = >10 µM
# [19] = target: Nanoluc_DDB1 (N-terminal Nanoluc luciferase, G4S linker, DDB1 (FL)) (UniProt Q16531); test: NanoBRET in HEK293T cells, 10-point titration of compound Example 3-63; class E = >10 µM
# [20] = target: Nanoluc_DDB1 (N-terminal Nanoluc luciferase, G4S linker, DDB1 (FL)) (UniProt Q16531); test: NanoBRET in HEK293T cells, 10-point titration of compound Example 3-59; class E = >10 µM
# [21] = target: Nanoluc_DDB1 (N-terminal Nanoluc luciferase, G4S linker, DDB1 (FL)) (UniProt Q16531); test: NanoBRET in HEK293T cells, 10-point titration of compound Example 3-66; class A = EC50<=0.25 µM
# [22] = target: Nanoluc_DDB1 (N-terminal Nanoluc luciferase, G4S linker, DDB1 (FL)) (UniProt Q16531); test: NanoBRET in HEK293T cells, 10 µM compound Example 3-15; class D = 1-2 fold increase
# [23] = target: Nanoluc_DDB1 (N-terminal Nanoluc luciferase, G4S linker, DDB1 (FL)) (UniProt Q16531); test: NanoBRET in HEK293T cells, 10 µM compound Example 3-30; class C = 2-3 fold increase
# [24] = target: Nanoluc_DDB1 (N-terminal Nanoluc luciferase, G4S linker, DDB1 (FL)) (UniProt Q16531); test: NanoBRET in HEK293T cells, 10-point titration of compound Example 3-35; class A = EC50<=0.25 µM
# [25] = target: Nanoluc_DDB1 (N-terminal Nanoluc luciferase, G4S linker, DDB1 (FL)) (UniProt Q16531); test: NanoBRET in HEK293T cells, 10-point titration of compound Example 3-14; class A = EC50<=0.25 µM
# Chain of Nanoluc_DDB1 (N-terminal Nanoluc luciferase, G4S linker, DDB1 (FL)) (Q16531 other isoform, or with tags, fused parts or gaps): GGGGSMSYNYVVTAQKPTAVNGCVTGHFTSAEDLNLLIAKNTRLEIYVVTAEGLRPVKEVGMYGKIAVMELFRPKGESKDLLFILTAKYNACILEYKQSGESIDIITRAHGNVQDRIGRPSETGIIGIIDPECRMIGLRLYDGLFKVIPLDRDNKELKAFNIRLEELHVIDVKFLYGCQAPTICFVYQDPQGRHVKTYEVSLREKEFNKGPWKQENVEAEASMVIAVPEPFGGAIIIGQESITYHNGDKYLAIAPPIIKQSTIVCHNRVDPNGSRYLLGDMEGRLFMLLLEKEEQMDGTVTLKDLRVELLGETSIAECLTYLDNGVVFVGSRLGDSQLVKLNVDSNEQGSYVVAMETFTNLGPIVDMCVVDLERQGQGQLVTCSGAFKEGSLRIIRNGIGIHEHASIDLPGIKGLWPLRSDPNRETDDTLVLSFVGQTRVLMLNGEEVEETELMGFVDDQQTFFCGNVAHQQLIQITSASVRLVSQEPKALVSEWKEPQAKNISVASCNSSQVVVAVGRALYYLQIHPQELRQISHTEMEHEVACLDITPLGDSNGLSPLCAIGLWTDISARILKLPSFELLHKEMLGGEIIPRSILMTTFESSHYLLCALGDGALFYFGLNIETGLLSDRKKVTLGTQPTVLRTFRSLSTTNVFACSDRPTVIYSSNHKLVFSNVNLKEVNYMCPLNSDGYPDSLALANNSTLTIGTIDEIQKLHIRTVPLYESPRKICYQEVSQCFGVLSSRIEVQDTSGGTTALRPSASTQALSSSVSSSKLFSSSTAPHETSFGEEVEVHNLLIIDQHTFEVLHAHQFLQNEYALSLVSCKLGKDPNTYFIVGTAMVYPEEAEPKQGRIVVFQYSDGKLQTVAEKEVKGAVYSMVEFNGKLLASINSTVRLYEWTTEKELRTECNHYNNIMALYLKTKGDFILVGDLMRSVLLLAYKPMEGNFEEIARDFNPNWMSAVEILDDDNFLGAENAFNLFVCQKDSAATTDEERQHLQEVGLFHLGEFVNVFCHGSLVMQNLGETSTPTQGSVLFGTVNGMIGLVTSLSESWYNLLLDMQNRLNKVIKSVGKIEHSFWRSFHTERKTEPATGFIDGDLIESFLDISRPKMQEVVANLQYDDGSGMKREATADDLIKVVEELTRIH
substance,measurement,setting,value
"HaloTag_CDK12 (N-terminal HaloTag, G4S linker, CDK12 (713-1052)) (from UniProt Q9NYV4 713-1052) (enzyme)",NanoBRET fold increase,[1],3 to 4 fold
same,NanoBRET fold increase,[2],3 to 4 fold
same,NanoBRET fold increase,[3],2 to 3 fold
same,NanoBRET fold increase,[4],3 to 4 fold
same,NanoBRET fold increase,[5],> 4 fold
same,NanoBRET fold increase,[6],2 to 3 fold
same,NanoBRET fold increase,[7],3 to 4 fold
same,NanoBRET fold increase,[8],2 to 3 fold
same,NanoBRET fold increase,[9],3 to 4 fold
same,NanoBRET fold increase,[10],3 to 4 fold
same,EC50,[11],< 250 nM
same,NanoBRET fold increase,[12],3 to 4 fold
same,NanoBRET fold increase,[13],> 4 fold
same,EC50,[14],< 250 nM
same,EC50,[15],< 250 nM
same,NanoBRET fold increase,[16],3 to 4 fold
same,NanoBRET fold increase,[17],2 to 3 fold
same,EC50,[18],> 10000 nM
same,EC50,[19],> 10000 nM
same,EC50,[20],> 10000 nM
same,EC50,[21],< 250 nM
same,NanoBRET fold increase,[22],1 to 2 fold
same,NanoBRET fold increase,[23],2 to 3 fold
same,EC50,[24],< 250 nM
same,EC50,[25],< 250 nM
